This is an account of results in patent publication US12698507B2, “Methods and compositions for conferring and/or enhancing herbicide tolerance using protoporphyrinogen IX oxidase of various cyanobacteria or variant thereof” (FarmHannong Co., Ltd., priority 2019, dated 2026).

This assay relates to PPO-deficient BT3 E. coli (ΔPPO). Put plainly: PPO-inhibiting herbicide tolerance test of PPO variants in E. coli (growth on herbicide-containing LB agar). Format: cell-based. The following applies: CyPPO19 variants in BT3 (ΔPPO) E. coli; LB agar with 0 to 2,000 μM herbicide, 37° C., dark, 16-20 hours. Summed up: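 Tolerance was scored against wild-type enzyme: '−' for equal growth, one '+' per 10-fold gain, up to '+++++'. ΔPPO BT3 cells carrying variant plasmids, spotted as a 10-fold dilution series from OD600=0.5, grew 16-20 h at 37° C. in the dark on ampicillin LB agar containing 0 to 2,000 μM herbicide.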

B1: CyPPO19 A167I + L327T + F360V: variant of CyPPO19 PPO protein (SEQ ID NO: 1) (protein)
chain: MSEVDVAIVGGGLSGLSLAWRLQQSAPQYSVVLLEASDRLGGNITTQTAEGFVWELGPNSFAPTPALLQLIAEVGLQSELIRGDRHLPRYIYWRGQLYPLQPTRPLALATSNLLSPWGKVRAALGALGFVPPYLGSGDESVNSFFRRHLGQEVAERLVAPFVSGVYIGDPQQLSAAAAFRRIAQLEKLGGGLIAGALHLRRQQAPKPKPPTSVQMRPGELGSFKEGLAALPRAIAQQLKAPIHLQTPVQEITPDPKGGYLLRSGEQTWRARSVVLATPAYQTAELVAPFQPAIARVLATIPYPTVACVVLAYPAGLGRSVRPGFGVTIPRSQGIRTLGTIWSSCLFPQRTPAGWQVFTSVIGGATDPDLASLSEEAIVQQVQQDLNRLLDLPAAKARLLGMKVWRRAIPQYMVGYPEQWQQVTHALSQTPGLFLCSNYAEGVALGDRVEHGNRTAAAVAAYLSGGQP
modifications: Synthetic_PPO of Thermosynechococcus elongatus PKUAC-SCTE542 (comprising GenBank No. CP032152.1)
For B1, the “tolerance level relative to wild type, Carfentrazone” value is “+ (‘+’ per each 10-fold resistance)”; the “tolerance level relative to wild type, Flumioxazin” value is given as “+++++ (until ‘+++++’ as maximal resistance)”; the “tolerance level relative to wild type, Fomesafen” value is on record as “+++ (‘+’ per each 10-fold resistance)”; the “tolerance level relative to wild type, Oxyfluorfen” value is listed as “+++ (‘+’ per each 10-fold resistance)”. Further, the “tolerance level relative to wild type, Saflufenacil” value is “+++++ (until ‘+++++’ as maximal resistance)”; the “tolerance level relative to wild type, Sulfentrazone” value is “+++++ (until ‘+++++’ as maximal resistance)”; the “tolerance level relative to wild type, Tiafenacil” value is given as “+++++ (until ‘+++++’ as maximal resistance)”.

B2: CyPPO19 A167L + I408R + F360L: variant of CyPPO19 PPO protein (SEQ ID NO: 1) (protein)
chain: MSEVDVAIVGGGLSGLSLAWRLQQSAPQYSVVLLEASDRLGGNITTQTAEGFVWELGPNSFAPTPALLQLIAEVGLQSELIRGDRHLPRYIYWRGQLYPLQPTRPLALATSNLLSPWGKVRAALGALGFVPPYLGSGDESVNSFFRRHLGQEVAERLVAPFVSGVYLGDPQQLSAAAAFRRIAQLEKLGGGLIAGALHLRRQQAPKPKPPTSVQMRPGELGSFKEGLAALPRAIAQQLKAPIHLQTPVQEITPDPKGGYLLRSGEQTWRARSVVLATPAYQTAELVAPFQPAIARVLATIPYPTVACVVLAYPAGLGRSVRPGFGVLIPRSQGIRTLGTIWSSCLFPQRTPAGWQVFTSLIGGATDPDLASLSEEAIVQQVQQDLNRLLDLPAAKARLLGMKVWRRARPQYMVGYPEQWQQVTHALSQTPGLFLCSNYAEGVALGDRVEHGNRTAAAVAAYLSGGQP
modifications: Synthetic_PPO of Thermosynechococcus elongatus PKUAC-SCTE542 (comprising GenBank No. CP032152.1)
Consider B2, for which the “tolerance level relative to wild type, Carfentrazone” value is on record as “+ (‘+’ per each 10-fold resistance)”; the “tolerance level relative to wild type, Flumioxazin” value is listed as “++++ (‘+’ per each 10-fold resistance)”; the “tolerance level relative to wild type, Fomesafen” value is listed as “+++ (‘+’ per each 10-fold resistance)”; the “tolerance level relative to wild type, Oxyfluorfen” value is “+++ (‘+’ per each 10-fold resistance)”. The “tolerance level relative to wild type, Saflufenacil” value was “++++ (‘+’ per each 10-fold resistance)”; the “tolerance level relative to wild type, Sulfentrazone” value is on record as “++++ (‘+’ per each 10-fold resistance)”; the “tolerance level relative to wild type, Tiafenacil” value is reported as “++++ (‘+’ per each 10-fold resistance)”.

B3: CyPPO19 A167C + I408W + F360I: variant of CyPPO19 PPO protein (SEQ ID NO: 1) (protein)
chain: MSEVDVAIVGGGLSGLSLAWRLQQSAPQYSVVLLEASDRLGGNITTQTAEGFVWELGPNSFAPTPALLQLIAEVGLQSELIRGDRHLPRYIYWRGQLYPLQPTRPLALATSNLLSPWGKVRAALGALGFVPPYLGSGDESVNSFFRRHLGQEVAERLVAPFVSGVYCGDPQQLSAAAAFRRIAQLEKLGGGLIAGALHLRRQQAPKPKPPTSVQMRPGELGSFKEGLAALPRAIAQQLKAPIHLQTPVQEITPDPKGGYLLRSGEQTWRARSVVLATPAYQTAELVAPFQPAIARVLATIPYPTVACVVLAYPAGLGRSVRPGFGVLIPRSQGIRTLGTIWSSCLFPQRTPAGWQVFTSIIGGATDPDLASLSEEAIVQQVQQDLNRLLDLPAAKARLLGMKVWRRAWPQYMVGYPEQWQQVTHALSQTPGLFLCSNYAEGVALGDRVEHGNRTAAAVAAYLSGGQP
modifications: Synthetic_PPO of Thermosynechococcus elongatus PKUAC-SCTE542 (comprising GenBank No. CP032152.1)
For B3, the “tolerance level relative to wild type, Carfentrazone” value is recorded as “+ (‘+’ per each 10-fold resistance)”; the “tolerance level relative to wild type, Flumioxazin” value is listed as “+++++ (until ‘+++++’ as maximal resistance)”; the “tolerance level relative to wild type, Fomesafen” value is “+++ (‘+’ per each 10-fold resistance)”; the “tolerance level relative to wild type, Oxyfluorfen” value is on record as “+++ (‘+’ per each 10-fold resistance)”. For the same molecule, the “tolerance level relative to wild type, Saflufenacil” value is given as “+++++ (until ‘+++++’ as maximal resistance)”; the “tolerance level relative to wild type, Sulfentrazone” value is on record as “+++++ (until ‘+++++’ as maximal resistance)”; the “tolerance level relative to wild type, Tiafenacil” value was “+++++ (until ‘+++++’ as maximal resistance)”.

B4: CyPPO19 V305M + L327T + F360I: variant of CyPPO19 PPO protein (SEQ ID NO: 1) (protein)
chain: MSEVDVAIVGGGLSGLSLAWRLQQSAPQYSVVLLEASDRLGGNITTQTAEGFVWELGPNSFAPTPALLQLIAEVGLQSELIRGDRHLPRYIYWRGQLYPLQPTRPLALATSNLLSPWGKVRAALGALGFVPPYLGSGDESVNSFFRRHLGQEVAERLVAPFVSGVYAGDPQQLSAAAAFRRIAQLEKLGGGLIAGALHLRRQQAPKPKPPTSVQMRPGELGSFKEGLAALPRAIAQQLKAPIHLQTPVQEITPDPKGGYLLRSGEQTWRARSVVLATPAYQTAELVAPFQPAIARVLATIPYPTMACVVLAYPAGLGRSVRPGFGVTIPRSQGIRTLGTIWSSCLFPQRTPAGWQVFTSIIGGATDPDLASLSEEAIVQQVQQDLNRLLDLPAAKARLLGMKVWRRAIPQYMVGYPEQWQQVTHALSQTPGLFLCSNYAEGVALGDRVEHGNRTAAAVAAYLSGGQP
modifications: Synthetic_PPO of Thermosynechococcus elongatus PKUAC-SCTE542 (comprising GenBank No. CP032152.1)
For the molecule B4, the “tolerance level relative to wild type, Carfentrazone” value was “+ (‘+’ per each 10-fold resistance)”; the “tolerance level relative to wild type, Flumioxazin” value was “++++ (‘+’ per each 10-fold resistance)”; the “tolerance level relative to wild type, Fomesafen” value is on record as “+ (‘+’ per each 10-fold resistance)”; the “tolerance level relative to wild type, Oxyfluorfen” value is listed as “++ (‘+’ per each 10-fold resistance)”. In addition, the “tolerance level relative to wild type, Saflufenacil” value is recorded as “++ (‘+’ per each 10-fold resistance)”; the “tolerance level relative to wild type, Sulfentrazone” value was “++ (‘+’ per each 10-fold resistance)”; the “tolerance level relative to wild type, Tiafenacil” value is “++++ (‘+’ per each 10-fold resistance)”.

B5: CyPPO19 A167I + I408W + F360V: variant of CyPPO19 PPO protein (SEQ ID NO: 1) (protein)
chain: MSEVDVAIVGGGLSGLSLAWRLQQSAPQYSVVLLEASDRLGGNITTQTAEGFVWELGPNSFAPTPALLQLIAEVGLQSELIRGDRHLPRYIYWRGQLYPLQPTRPLALATSNLLSPWGKVRAALGALGFVPPYLGSGDESVNSFFRRHLGQEVAERLVAPFVSGVYIGDPQQLSAAAAFRRIAQLEKLGGGLIAGALHLRRQQAPKPKPPTSVQMRPGELGSFKEGLAALPRAIAQQLKAPIHLQTPVQEITPDPKGGYLLRSGEQTWRARSVVLATPAYQTAELVAPFQPAIARVLATIPYPTVACVVLAYPAGLGRSVRPGFGVLIPRSQGIRTLGTIWSSCLFPQRTPAGWQVFTSVIGGATDPDLASLSEEAIVQQVQQDLNRLLDLPAAKARLLGMKVWRRAWPQYMVGYPEQWQQVTHALSQTPGLFLCSNYAEGVALGDRVEHGNRTAAAVAAYLSGGQP
modifications: Synthetic_PPO of Thermosynechococcus elongatus PKUAC-SCTE542 (comprising GenBank No. CP032152.1)
Regarding B5, the “tolerance level relative to wild type, Carfentrazone” value was “+ (‘+’ per each 10-fold resistance)”; the “tolerance level relative to wild type, Flumioxazin” value is on record as “++++ (‘+’ per each 10-fold resistance)”; the “tolerance level relative to wild type, Fomesafen” value was “+ (‘+’ per each 10-fold resistance)”; the “tolerance level relative to wild type, Oxyfluorfen” value is on record as “++ (‘+’ per each 10-fold resistance)”. Moreover, the “tolerance level relative to wild type, Saflufenacil” value is reported as “++++ (‘+’ per each 10-fold resistance)”; the “tolerance level relative to wild type, Sulfentrazone” value is “+++ (‘+’ per each 10-fold resistance)”; the “tolerance level relative to wild type, Tiafenacil” value is given as “++++ (‘+’ per each 10-fold resistance)”.
